One molecule from patent US20230357364A1 can be followed below.

The test has as its target SARS-CoV-1 RBD (RBD-1) (SARS-CoV-1). Put plainly: ELISA. The following applies: remark: other sources report otherwise.

B1: L12.bP11A06 (antibody, V domains shown)
VH: EVQLVESGGGLIQPGGSLRLSCAASGLTVSSNYMSWVRQAPGKGLEWVSVIYSGGSTFYADSVKGRFTISRDNSKNTLYLQMNSLRAEDTAVYYCARDLDVYGLDVWGQGTTVTVSS
VL: DIVMTQSPSFLSASVGDRVTITCRASQGISSYLAWYQQKPGKAPKLLIYAASTLQSGVPSRFSGSGSGTEFTLTISSLQPEDFATYYCQQLNSYPPKFTFGPGTKVEIK
Turning to B1, the EC50 (as a rule, the midpoint of the concentration-response curve) was over 50 µg/mL.
